From the RNAGym collection of RNA variant scans (doi:10.1093/molbev/msab373)

B1: Azoarcus group I ribozyme (parent)
chain: GUGCCUUGCGCCGGGAAACCACGCAAGGGAUGGUGUCAAAUUCGGCGAAACCUAAGCGCCCGCCCGGGCGUAUGGCAACGCCGAGCCAAGCUUCGGCGCCUGCGCCGAUGAAGGUGUAGAGACUAGACGGCACCCACCUAAGGCAAACGCUAUGGUGAAGGCAUAGUCCAGGGAGUGGCGAAAGUCACACAAACCGG

Variants of: B1
Assay: reverse-splicing fitness (ratio to wild type); higher = more active; in vitro selection; Mg2+ level not given
Summary of the method: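 An in vitro group I ribozyme library with randomized positions was T7-transcribed and gel-purified. In triplicate, 10 pmol RNA in EPPS pH 7.5 was reacted with 50 pmoles of a 30-nt RNA substrate for 1 h at 37 °C across several added MgCl2 levels (1–48 mM), then stopped with EDTA. Products were reverse transcribed from a substrate-complementary primer, PCR-amplified and sequenced (HiSeq 4000). Fitness is a variant's read proportion after selection over that before, normalised to wild type.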

Variant | reverse-splicing fitness
GUGCCUUGCGCCGGGAAACCACGCAAGGGAUGGUGUCAAAUUCGGCGAAACCUAAGCGCCCGCCCGGGCGUAUGGCAACGCCGAGCCAAGCUUCGGCGCCUGCGCCGAUGGAGGUGUAGUGACUAGACGGCACCCACCUAAGGCCAACGCUAUGGUGAAGGCAUAGUCAAGGGAGCGGCGAAAGUCACACAAACCGG | 0.0018
GUGCCUUGCGCCGGGAAACCACGCAAGGGAUGGUGUCAAAUUCGGCGAAACCUAAGCGCCCGCCCGGGCGUAUGGCAACGCCGAGCCAAGCUUCGGCGCCUGCGCCGAUGGAGGUGUAGUGACUAGACGGCACCCACCUAAGGCCAACGCUAUGGUGAAGGCAUAGUCAAGGGAGGGGCGAAAGUCACACAAACCGG | 0.0014
GUGCCUUGCGCCGGGAAACCACGCAAGGGAUGGUGUCAAAUUCGGCGAAACCUAAGCGCCCGCCCGGGCGUAUGGCAACGCCGAGCCAAGCUUCGGCGCCUGCGCCGAUGGAGGUGUAGUGACUAGACGGCACCCACCUAAGGCCAACGCUAUGGUGAAGGCAUAGUCGAGGGAGUGGCGAAAGUCACACAAACCGG | 0.0842
GUGCCUUGCGCCGGGAAACCACGCAAGGGAUGGUGUCAAAUUCGGCGAAACCUAAGCGCCCGCCCGGGCGUAUGGCAACGCCGAGCCAAGCUUCGGCGCCUGCGCCGAUGGAGGUGUAGUGACUAGACGGCACCCACCUAAGGCCAACGCUAUGGUGAAGGCAUAGUCGAGGGAGAGGCGAAAGUCACACAAACCGG | 0.00876
GUGCCUUGCGCCGGGAAACCACGCAAGGGAUGGUGUCAAAUUCGGCGAAACCUAAGCGCCCGCCCGGGCGUAUGGCAACGCCGAGCCAAGCUUCGGCGCCUGCGCCGAUGGAGGUGUAGUGACUAGACGGCACCCACCUAAGGCCAACGCUAUGGUGAAGGCAUAGUCGAGGGAGCGGCGAAAGUCACACAAACCGG | 0.00699
GUGCCUUGCGCCGGGAAACCACGCAAGGGAUGGUGUCAAAUUCGGCGAAACCUAAGCGCCCGCCCGGGCGUAUGGCAACGCCGAGCCAAGCUUCGGCGCCUGCGCCGAUGGAGGUGUAGUGACUAGACGGCACCCACCUAAGGCCAACGCUAUGGUGAAGGCAUAGUCGAGGGAGGGGCGAAAGUCACACAAACCGG | 0.00205
GUGCCUUGCGCCGGGAAACCACGCAAGGGAUGGUGUCAAAUUCGGCGAAACCUAAGCGCCCGCCCGGGCGUAUGGCAACGCCGAGCCAAGCUUCGGCGCCUGCGCCGAUGGAGGUGUAGUGACUAGACGGCACCCACCUAAGGCCAACGCUAUGGUGAAGGCAUAGUCUAGGGAGUGGCGAAAGUCACACAAACCGG | 0.12
GUGCCUUGCGCCGGGAAACCACGCAAGGGAUGGUGUCAAAUUCGGCGAAACCUAAGCGCCCGCCCGGGCGUAUGGCAACGCCGAGCCAAGCUUCGGCGCCUGCGCCGAUGGAGGUGUAGUGACUAGACGGCACCCACCUAAGGCCAACGCUAUGGUGAAGGCAUAGUCUAGGGAGAGGCGAAAGUCACACAAACCGG | 0.0207
GUGCCUUGCGCCGGGAAACCACGCAAGGGAUGGUGUCAAAUUCGGCGAAACCUAAGCGCCCGCCCGGGCGUAUGGCAACGCCGAGCCAAGCUUCGGCGCCUGCGCCGAUGGAGGUGUAGUGACUAGACGGCACCCACCUAAGGCCAACGCUAUGGUGAAGGCAUAGUCUAGGGAGCGGCGAAAGUCACACAAACCGG | 0.0146
GUGCCUUGCGCCGGGAAACCACGCAAGGGAUGGUGUCAAAUUCGGCGAAACCUAAGCGCCCGCCCGGGCGUAUGGCAACGCCGAGCCAAGCUUCGGCGCCUGCGCCGAUGGAGGUGUAGUGACUAGACGGCACCCACCUAAGGCCAACGCUAUGGUGAAGGCAUAGUCUAGGGAGGGGCGAAAGUCACACAAACCGG | 0.00329
GUGCCUUGCGCCGGGAAACCACGCAAGGGAUGGUGUCAAAUUCGGCGAAACCUAAGCGCCCGCCCGGGCGUAUGGCAACGCCGAGCCAAGCUUCGGCGCCUGCGCCGAUGGAGGUGUAGUGACUAGACGGCACCCACCUAAGGCCAACGCUAUGGUGAAGGCAUAGUCCAGGGAGAGGCGAAAGUCACACAAACCGG | 0.332
GUGCCUUGCGCCGGGAAACCACGCAAGGGAUGGUGUCAAAUUCGGCGAAACCUAAGCGCCCGCCCGGGCGUAUGGCAACGCCGAGCCAAGCUUCGGCGCCUGCGCCGAUGGAGGUGUAGUGACUAGACGGCACCCACCUAAGGCCAACGCUAUGGUGAAGGCAUAGUCCAGGGAGCGGCGAAAGUCACACAAACCGG | 0.214
GUGCCUUGCGCCGGGAAACCACGCAAGGGAUGGUGUCAAAUUCGGCGAAACCUAAGCGCCCGCCCGGGCGUAUGGCAACGCCGAGCCAAGCUUCGGCGCCUGCGCCGAUGGAGGUGUAGUGACUAGACGGCACCCACCUAAGGCCAACGCUAUGGUGAAGGCAUAGUCCAGGGAGGGGCGAAAGUCACACAAACCGG | 0.131
GUGCCUUGCGCCGGGAAACCACGCAAGGGAUGGUGUCAAAUUCGGCGAAACCUAAGCGCCCGCCCGGGCGUAUGGCAACGCCGAGCCAAGCUUCGGCGCCUGCGCCGAUGGAGGUGUAGUGACUAGACGGCACCCACCUAAGGCGAACGCUAUGGUGAAGGCAUAGUCCAGGGAGUGGCGAAAGUCACACAAACCGG | 0.667
GUGCCUUGCGCCGGGAAACCACGCAAGGGAUGGUGUCAAAUUCGGCGAAACCUAAGCGCCCGCCCGGGCGUAUGGCAACGCCGAGCCAAGCUUCGGCGCCUGCGCCGAUGGAGGUGUAGUGACUAGACGGCACCCACCUAAGGCGAACGAUAUGGUGAAGGCAUAGUCCAGGGAGUGGCGAAAGUCACACAAACCGG | 0.148
